Patent US20020086390A1

Molecular target: PAK I of frog (Lepidobatrachus laevis) oocytes, zygotes and embryos (frog (Lepidobatrachus laevis))
Assay: cell-based or functional assay

degree of activation of inactive PAK I in DEAE-cellulose fractions (H4 phosphorylation): 6 to 7 fold
Substance: GST-Cdc42Hs preloaded with GTPγS (from UniProt P60953 1-191)
